The target of test [1] is Influenza split vaccine B/Shanghai/361/2002.
Test [2] addresses Influenza split vaccine A/New York/55/2004 (H3N2).
Test [3] concerns the target Influenza split vaccine A/New Caledonia/20/99 (H1N1).
Test [4] has the same target. This is another data set of the same source.
The target is the same in test [5]. The source holds these as a separate data set.

Where two headings read alike, the source gives them in different places.

“Synthetic AD vehicle SSF-28 (from UniProt P07988 201-260)”: the Coupling Ratio (%) is 87.9% in test [1], 64.4% in test [2] and 83% in test [3].
Regarding “Synthetic AD vehicle SSF-30 (from UniProt P07988 220-260)”, the Coupling Ratio (%) in test [4] came out at 91.3%.

B1: Synthetic AD vehicle SSF-24 (peptide)
peptide: RMLPQLVCRLVLRCSMD
As for B1, the Coupling Ratio (%) in test [4] was 91.3%.

B2: Synthetic AD vehicle SSF-45 (peptide)
peptide: KLLLLKLLLLKLLLLKLLLL
In the case of B2, the Coupling Ratio (%) in test [5] was 64.8%.

B3: Synthetic AD vehicle SSF-44 (peptide)
peptide: PVHLKRLLLLLLLLLLLLLLLL
As for B3, in test [5], the Coupling Ratio (%) was 72.8%.

B4: Synthetic AD vehicle SSF-48 (peptide)
peptide: FGIPSSPVHLKRLLILKLLLLKILLLKLGALLIGL
With B4, in test [5], the Coupling Ratio (%) turned out to be 66.3%.

B5: Synthetic AD vehicle SSF-14 (peptide)
peptide: FPIPLPYCWLCRALIKRIQAMIPKG
Consider B5, for which, in test [4], the Coupling Ratio (%) came out at 57%.

B6: Synthetic AD vehicle SSF-46 (peptide)
peptide: IPCCPVHLKRLKLLLLLLLLILLLILGALLMGL
For the molecule B6, the Coupling Ratio (%) in test [5] came out at 76.2%.

B7: Synthetic AD vehicle SSF-47 (peptide)
peptide: GIPFFPVHLKRLKLLLLLLLLILLLILGALLIGL
As for B7, the Coupling Ratio (%) in test [5] stood at 86.9%.

These data come from US20090130131A1.
